Experimental data as given in patent publication US20240009318A1 (BLISS BIOPHARMACEUTICAL HANGZHOU, published 2024).

Columns and labels:
human EGFR protein [1] = molecular target: T1, human EGFR protein (human, UniProt P00533 25-645, limits assumed); experiment: BLI (Octet RED96e), antibody captured on anti-human Fc (AHC) biosensors, EGFR in solution
T1 construct: The BLI text says 'human EGFR'; the ELISA text says only 'EGFR'; also called epidermal growth factor receptor; HER1
Description: Affinity tests are performed in SD buffer (0.02% Tween-20, 0.1% BSA in PBS buffer, pH 7.4) using anti-human Fc Capture (AHC) biosensors. Antibody sample or buffer are dispensed into 96-well microtiter plates. AHC biosensors (Pall FortéBio) are pre-wet with SD buffer to establish a baseline before protein immobilization. The antibody sample is immobilized onto the biosensors. […] Mutant and control antibodies binding is evaluated at various concentrations of EGFR. Data are generated automatically by the Data Acquisition software, and data analysis is performed using FortéBio Data Analysis software.

human EGFR protein [2] = molecular target: T1, human EGFR protein; experiment: ELISA
Description: (§1) Mutant antibody samples or control antibodies diluted in 5-fold serial dilutions starting from 10 μg/mL and 8 dilutions total, were coated onto 96-well plates and the plates were incubated at 4° C. overnight. Using HRP-labeled goat anti-human IgG Fc antibody (Sigma, A0170) in 40000 dilution as a detection agent and TMB for colorimetric reaction, the plates read at 450/650 nm for absorbance on Microplate Reader (Molecular Devices, SpectraMax 190) and data analysis was performed using a dose response curve format four parameters logistic model.

human EGFR protein [3] = molecular target: T1, human EGFR protein; experiment: ELISA of binding to EGFR, 5-fold dilutions from 10 ug/mL, detection with HRP goat anti-human IgG Fc, OD 450/650 nm
Description: as §1

B1: BB0500-2n (antibody)
heavy: QVQLQESGPGLVKPSETLSLTCTVSGGSVSSGDYYWTWIRQSPGKGLEWIGHIYYSGNANYNPSLKSRLTISIDTSKTQFSLKLSSVTAADTAIYYCVRDRVTGAFDIWGQGTMVTVSSASTKGPSVFPLAPCSRSTSESTAALGCLVKDYFPEPVTVSWNSGALTSGVHTFPAVLQSSGLYSLSSVVTVPSSNFGTQTYTCNVDHKPSNTKVDKTVEPPKSDCKTHTVECPPCPAPEAAGGPSVFLFPPKPKDTLMISRTPEVTCVVVDVSHEDPEVKFNWYVDGVEVHNAKTKPREEQYNSTYRVVSVLTVLHQDWLNGKEYKCKVSNKALPAPIEKTISKAKGQPREPQVYTLPPSREEMTKNQVSLTCLVKGFYPSDIAVEWESNGQPENNYKTTPPVLDSDGSFFLYSKLTVDKSRWQQGNVFSCSVMHEALHNHYTQKSLSLSPGK
light: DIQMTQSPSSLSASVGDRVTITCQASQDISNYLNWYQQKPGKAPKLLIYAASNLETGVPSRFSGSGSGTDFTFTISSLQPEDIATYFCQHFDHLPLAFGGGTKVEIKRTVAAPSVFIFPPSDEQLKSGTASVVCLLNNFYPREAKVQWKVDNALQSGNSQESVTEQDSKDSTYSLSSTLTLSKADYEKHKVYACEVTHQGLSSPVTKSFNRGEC
notes: Same variable domains as BB0500-2f; the heavy chain constant part differs
- Kd (human EGFR protein [1]): 44.1 nM
- koff (human EGFR protein [1]): 0.024 s⁻¹
- kon (human EGFR protein [1]): 543000 M⁻¹ s⁻¹

B2: BB0500-2g1 (antibody, V domains shown)
VH: QVQLQESGPGLVKPSETLSLTCTVSGGSVSSGDYYWTWIRQSPGKGLEWIGHIYYSGNTNYNPSLKSRLTISIDTSKTQFSLKLSSVTAADTAIYYCVRDRVAGAFDIWGQGTMVTVSS
VL: DIQMTQSPSSLSASVGDRVTITCQASQDISNYLNWYQQKPGKAPKLLIYDASNLETGVPSRFSGSGSGTDFTFTISSLQPEDIATYFCQHFDHLPLAFGGGTKVEIKR
notes: The entries already carry the mutation; also called H3T103 single alanine mutant of panitumumab (VH T103A, VL wt)
- EC50 fold change against wt control (human EGFR protein [2]): ~100 fold

B3: BB0500-2f2 (antibody, V domains shown)
VH: QVQLQESGPGLVKPSETLSLTCTVSGGSVSSGDYYWTWIRQSPGKGLEWIGHIYYSGNTNYNPSLKSRLTISIDTSKTQFSLKLSSVTAADTAIYYCVRDRVTGAFDIWGQGTMVTVSS
VL: DIQMTQSPSSLSASVGDRVTITCQASQDISNYLNWYQQKPGKAPKLLIYAASNLETGVPSRFSGSGSGTDFTFTISSLQPEDIATYFCQHFDHLPLAFGGGTKVEIKR
notes: The entries already carry the mutation; also called L2D50 single alanine mutant of panitumumab (VH wt, VL D50A)
- EC50 (read off the curve) (human EGFR protein [3]): ~0.02 µg/mL
- Kd (human EGFR protein [1]): 28.3 nM
- koff (human EGFR protein [1]): 0.0154 s⁻¹
- kon (human EGFR protein [1]): 543000 M⁻¹ s⁻¹

B4: BB0500-2f1 (antibody, V domains shown)
VH: QVQLQESGPGLVKPSETLSLTCTVSGGSVSSGDYYWTWIRQSPGKGLEWIGHIYYSGNANYNPSLKSRLTISIDTSKTQFSLKLSSVTAADTAIYYCVRDRVTGAFDIWGQGTMVTVSS
VL: DIQMTQSPSSLSASVGDRVTITCQASQDISNYLNWYQQKPGKAPKLLIYDASNLETGVPSRFSGSGSGTDFTFTISSLQPEDIATYFCQHFDHLPLAFGGGTKVEIKR
notes: The entries already carry the mutation; also called H2T59 single alanine mutant of panitumumab (VH T59A, VL wt)
- EC50 (read off the curve) (human EGFR protein [3]): ~0.02 µg/mL
- Kd (human EGFR protein [1]): 1.12 nM
- koff (human EGFR protein [1]): 0.000736 s⁻¹
- kon (human EGFR protein [1]): 655000 M⁻¹ s⁻¹

B5: BB0500-2g (antibody, V domains shown)
VH: QVQLQESGPGLVKPSETLSLTCTVSGGSVSSGDYYWTWIRQSPGKGLEWIGHIYYSGNTNYNPSLKSRLTISIDTSKTQFSLKLSSVTAADTAIYYCVRDRVAGAFDIWGQGTMVTVSS
VL: DIQMTQSPSSLSASVGDRVTITCQASQDISNALNWYQQKPGKAPKLLIYDASNLETGVPSRFSGSGSGTDFTFTISSLQPEDIATYFCQHFDHLPLAFGGGTKVEIKR
notes: also called H3T103 / L1Y32 double alanine mutant of panitumumab (VH T103A, VL Y32A)
- EC50 (read off the curve) (human EGFR protein [3]): ~0.02 µg/mL
- Kd (human EGFR protein [1]): 38.8 nM
- koff (human EGFR protein [1]): 0.0272 s⁻¹
- kon (human EGFR protein [1]): 701000 M⁻¹ s⁻¹

B6: BB0500-2f (antibody)
heavy: QVQLQESGPGLVKPSETLSLTCTVSGGSVSSGDYYWTWIRQSPGKGLEWIGHIYYSGNANYNPSLKSRLTISIDTSKTQFSLKLSSVTAADTAIYYCVRDRVTGAFDIWGQGTMVTVSSASTKGPSVFPLAPCSRSTSESTAALGCLVKDYFPEPVTVSWNSGALTSGVHTFPAVLQSSGLYSLSSVVTVPSSNFGTQTYTCNVDHKPSNTKVDKTVEPKSDKCTHTVECPPCPAPPVAGPSVFLFPPKPKDTLMISRTPEVTCVVVDVSHEDPEVQFNWYVDGVEVHNAKTKPREEQFNSTFRVVSVLTVVHQDWLNGKEYKCKVSNKGLPAPIEKTISKTKGQPREPQVYTLPPSREEMTKNQVSLTCLVKGFYPSDISVEWESNGQPENNYKTTPPMLDSDGSFFLYSKLTVDKSRWQQGNVFSCSVMHEALHNHYTQKSLSLSPGK
light: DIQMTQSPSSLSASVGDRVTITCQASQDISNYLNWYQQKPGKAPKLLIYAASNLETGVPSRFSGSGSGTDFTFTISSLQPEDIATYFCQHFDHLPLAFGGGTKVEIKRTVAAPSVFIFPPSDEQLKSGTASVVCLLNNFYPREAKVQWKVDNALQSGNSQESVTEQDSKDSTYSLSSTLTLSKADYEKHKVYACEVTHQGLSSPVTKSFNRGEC
notes: Same variable domains as BB0500-2n; the heavy chain constant part differs; also called H2T59 / L2D50 double alanine mutant of panitumumab (VH T59A, VL D50A)
- EC50 (read off the curve) (human EGFR protein [3]): ~0.02 µg/mL
